Reference: PMC9352680, “A comprehensive thermodynamic model for RNA binding by the Saccharomyces cerevisiae Pumilio protein PUF4”
Substitutions are numbered along the chain they refer to. In names and notes the source's numbering stands.

T1: PUF4 RNA-binding domain (Saccharomyces cerevisiae, UniProt P25339 537-888)
T1 sequence: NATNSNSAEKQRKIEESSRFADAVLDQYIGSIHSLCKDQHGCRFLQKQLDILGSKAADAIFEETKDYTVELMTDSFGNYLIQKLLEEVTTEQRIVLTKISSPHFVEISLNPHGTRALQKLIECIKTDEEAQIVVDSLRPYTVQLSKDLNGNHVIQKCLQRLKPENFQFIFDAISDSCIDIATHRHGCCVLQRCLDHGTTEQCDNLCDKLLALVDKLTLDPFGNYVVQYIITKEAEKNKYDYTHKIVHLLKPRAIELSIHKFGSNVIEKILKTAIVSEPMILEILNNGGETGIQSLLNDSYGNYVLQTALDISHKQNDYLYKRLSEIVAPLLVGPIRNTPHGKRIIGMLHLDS

B1: Ib_S1_P3E.1_K3.1_C3.1_H3.1_[A4T]_A3.1_[A6C]_F3.1_T3.1 (ssRNA)
RNA: UCUCUUUGUUUCUAUCUCUU
B2: Ib_S1_P3E.1_K3.1_C3.1_H3.1_A3.1_[T5G]_[A6C]_F3.1_T3.1 (ssRNA)
RNA: UCUCUUUGUAGCUAUCUCUU
B3: Ia_S1_P4E.1_K4.1_C4.1_H4.1_A4.1_F4.1_[A9T]_T4.1 (ssRNA)
RNA: UCUCUUUGUAUAUUUUCUCUU
B4: Ib_S1_P3E.1_K3.1_C3.1_H3.1_[A4T]_A3.1_[A6T]_F3.1_T3.1 (ssRNA)
RNA: UCUCUUUGUUUUUAUCUCUU
B5: Ib_S1_P3E.1_K3.1_C3.1_H3.1_[A4T]_A3.1_[A6G]_F3.1_T3.1 (ssRNA)
RNA: UCUCUUUGUUUGUAUCUCUU
B6: Ic_S2_P4E.1_K4.1_C4.1_H4.1_A4.1_[T5C]_[A6C]_[T7A]_F4.1_[T8A]_[A9C]_T4.1 (ssRNA)
RNA: UUUGAUUAAUAUGAUAUCGUUCUUUCUUGUACCAACUUCUUUCUCGAUAUCAUAUUAAUCUUU
B7: Ic_S2_P4E.1_K4.1_C4.1_H4.1_A4.1_[T5C]_[A6C]_F4.1_[A9G]_T4.1 (ssRNA)
RNA: B6 RNA with A34U, A35U, C36G
B8: Ic_S2_P4E.1_K4.1_C4.1_H4.1_A4.1_[T5C]_[A6C]_F4.1_[A9C]_T4.1 (ssRNA)
RNA: B6 RNA with A34U, A35U
B9: Ic_S2_P4E.1_K4.1_C4.1_H4.1_A4.1_[T5C]_[T7G]_F4.1_[A9T]_T4.1 (ssRNA)
RNA: B6 RNA with C33A, A34G, A35U, C36U
B10: Ic_S2_P4E.1_K4.1_C4.1_H4.1_A4.1_[T5C]_[A6C]_F4.1_[T8C]_T4.1 (ssRNA)
RNA: B6 RNA with A34U, A35C, C36A
B11: Ic_S2_P4E.1_K4.1_C4.1_H4.1_A4.1_[T5C]_[A6C]_F4.1_[T8C]_[A9T]_T4.1 (ssRNA)
RNA: B6 RNA with A34U, A35C, C36U
B12: Ic_S2_P4E.1_K4.1_C4.1_H4.1_A4.1_[T5C]_[A6C]_[T7A]_F4.1_[A9G]_T4.1 (ssRNA)
RNA: B6 RNA with A35U, C36G
B13: Ic_S2_P4E.1_K4.1_C4.1_H4.1_A4.1_[T5C]_[A6C]_F4.1_[T8C]_[A9C]_T4.1 (ssRNA)
RNA: B6 RNA with A34U, A35C
B14: Ic_S2_P4E.1_K4.1_C4.1_H4.1_A4.1_[T5C]_[A6T]_[T7G]_F4.1_[T8C]_[A9C]_T4.1 (ssRNA)
RNA: B6 RNA with C33U, A34G, A35C
B15: Ic_S2_P4E.1_K4.1_C4.1_H4.1_A4.1_[T5C]_[A6T]_[T7G]_F4.1_[A9T]_T4.1 (ssRNA)
RNA: B6 RNA with C33U, A34G, A35U, C36U
B16: Ic_S2_P4E.1_K4.1_C4.1_H4.1_A4.1_[T5C]_[A6T]_F4.1_[T8G]_[A9C]_T4.1 (ssRNA)
RNA: B6 RNA with C33U, A34U, A35G
B17: Ic_S2_P4E.1_K4.1_C4.1_H4.1_A4.1_[T5C]_[A6T]_[T7A]_F4.1_[A9C]_T4.1 (ssRNA)
RNA: B6 RNA with C33U, A35U
B18: Ic_S2_P4E.1_K4.1_C4.1_H4.1_A4.1_[T5C]_[A6T]_F4.1_[A9C]_T4.1 (ssRNA)
RNA: B6 RNA with C33U, A34U, A35U
B19: Ic_S2_P4E.1_K4.1_C4.1_H4.1_A4.1_[T5C]_[A6C]_F4.1_[T8A]_[A9G]_T4.1 (ssRNA)
RNA: B6 RNA with A34U, C36G
B20: Ic_S2_P4E.1_K4.1_C4.1_H4.1_A4.1_[T5C]_[A6T]_F4.1_[T8A]_[A9G]_T4.1 (ssRNA)
RNA: B6 RNA with C33U, A34U, C36G
B21: Ic_S2_P4E.1_K4.1_C4.1_H4.1_A4.1_[T5C]_[A6T]_[T7A]_F4.1_[T8C]_T4.1 (ssRNA)
RNA: B6 RNA with C33U, A35C, C36A
B22: Ic_S2_P4E.1_K4.1_C4.1_H4.1_A4.1_[T5C]_[A6C]_F4.1_[T8A]_[A9T]_T4.1 (ssRNA)
RNA: B6 RNA with A34U, C36U
B23: Ic_S2_P4E.1_K4.1_C4.1_H4.1_A4.1_[T5C]_[A6T]_F4.1_[T8C]_[A9C]_T4.1 (ssRNA)
RNA: B6 RNA with C33U, A34U, A35C
B24: Ic_S2_P4E.1_K4.1_C4.1_H4.1_A4.1_[T5C]_[A6T]_[T7C]_F4.1_[T8C]_[A9C]_T4.1 (ssRNA)
RNA: B6 RNA with C33U, A34C, A35C
B25: Ic_S2_P4E.1_K4.1_C4.1_H4.1_A4.1_[T5C]_[A6T]_F4.1_[T8A]_[A9T]_T4.1 (ssRNA)
RNA: B6 RNA with C33U, A34U, C36U
B26: Ic_S2_P4E.1_K4.1_C4.1_H4.1_A4.1_[T5C]_[A6T]_[T7C]_F4.1_T4.1 (ssRNA)
RNA: B6 RNA with C33U, A34C, A35U, C36A
B27: Ic_S2_P4E.1_K4.1_C4.1_H4.1_A4.1_[T5C]_[A6T]_F4.1_[T8A]_[A9C]_T4.1 (ssRNA)
RNA: B6 RNA with C33U, A34U
B28: Ic_S2_P4E.1_K4.1_C4.1_H4.1_A4.1_[T5C]_[A6T]_F4.1_[T8C]_T4.1 (ssRNA)
RNA: B6 RNA with C33U, A34U, A35C, C36A
B29: Ic_S2_P4E.1_K4.1_C4.1_H4.1_A4.1_[T5C]_[A6T]_[T7G]_F4.1_[T8G]_[A9T]_T4.1 (ssRNA)
RNA: B6 RNA with C33U, A34G, A35G, C36U
B30: Ic_S2_P4E.1_K4.1_C4.1_H4.1_A4.1_[T5C]_[A6C]_F4.1_[T8G]_[A9T]_T4.1 (ssRNA)
RNA: B6 RNA with A34U, A35G, C36U
B31: Ic_S2_P4E.1_K4.1_C4.1_H4.1_A4.1_[T5C]_[A6T]_[T7G]_F4.1_[T8C]_[A9T]_T4.1 (ssRNA)
RNA: B6 RNA with C33U, A34G, A35C, C36U
B32: Ic_S2_P4E.1_K4.1_C4.1_H4.1_A4.1_[T5C]_[A6C]_[T7A]_F4.1_[T8A]_[A9T]_T4.1 (ssRNA)
RNA: B6 RNA with C36U
B33: Ic_S2_P4E.1_K4.1_C4.1_H4.1_A4.1_[T5C]_[T7C]_F4.1_[T8C]_T4.1 (ssRNA)
RNA: B6 RNA with C33A, A34C, A35C, C36A
B34: Ic_S2_P4E.1_K4.1_C4.1_H4.1_A4.1_[T5C]_[A6T]_F4.1_[T8C]_[A9G]_T4.1 (ssRNA)
RNA: B6 RNA with C33U, A34U, A35C, C36G
B35: Ic_S2_P4E.1_K4.1_C4.1_H4.1_A4.1_[T5C]_[A6T]_F4.1_[T8G]_[A9T]_T4.1 (ssRNA)
RNA: B6 RNA with C33U, A34U, A35G, C36U
B36: Ic_S2_P4E.1_K4.1_C4.1_H4.1_A4.1_[T5C]_[A6T]_[T7C]_F4.1_[T8C]_T4.1 (ssRNA)
RNA: B6 RNA with C33U, A34C, A35C, C36A
B37: Ic_S2_P4E.1_K4.1_C4.1_H4.1_A4.1_[T5C]_[A6T]_[T7A]_F4.1_[T8G]_[A9T]_T4.1 (ssRNA)
RNA: B6 RNA with C33U, A35G, C36U
B38: Ic_S2_P4E.1_K4.1_C4.1_H4.1_A4.1_[T5C]_[A6T]_[T7C]_F4.1_[T8A]_[A9T]_T4.1 (ssRNA)
RNA: B6 RNA with C33U, A34C, C36U
B39: Ic_S2_P4E.1_K4.1_C4.1_H4.1_A4.1_[T5C]_[A6T]_F4.1_[T8C]_[A9T]_T4.1 (ssRNA)
RNA: B6 RNA with C33U, A34U, A35C, C36U
B40: Ic_S2_P4E.1_K4.1_C4.1_H4.1_A4.1_[T5C]_[T7G]_F4.1_[T8C]_T4.1 (ssRNA)
RNA: B6 RNA with C33A, A34G, A35C, C36A
B41: Ic_S2_P4E.1_K4.1_C4.1_H4.1_A4.1_[T5C]_[A6T]_F4.1_[A9G]_T4.1 (ssRNA)
RNA: B6 RNA with C33U, A34U, A35U, C36G
B42: Ic_S2_P4E.1_K4.1_C4.1_H4.1_A4.1_[T5C]_[A6T]_[T7A]_F4.1_[T8A]_[A9C]_T4.1 (ssRNA)
RNA: B6 RNA with C33U
B43: Ic_S2_P4E.1_K4.1_C4.1_H4.1_A4.1_[T5C]_[A6T]_[T7G]_F4.1_T4.1 (ssRNA)
RNA: B6 RNA with C33U, A34G, A35U, C36A
B44: Ic_S2_P4E.1_K4.1_C4.1_H4.1_A4.1_[T5C]_[A6T]_F4.1_[A9T]_T4.1 (ssRNA)
RNA: B6 RNA with C33U, A34U, A35U, C36U
B45: Ic_S2_P4E.1_K4.1_C4.1_H4.1_A4.1_[T5C]_[A6T]_F4.1_[T8G]_[A9G]_T4.1 (ssRNA)
RNA: B6 RNA with C33U, A34U, A35G, C36G
B46: Ic_S2_P4E.1_K4.1_C4.1_H4.1_A4.1_[T5C]_[A6C]_F4.1_[A9T]_T4.1 (ssRNA)
RNA: B6 RNA with A34U, A35U, C36U
B47: Ic_S2_P4E.1_K4.1_C4.1_H4.1_A4.1_[T5C]_[A6T]_[T7C]_F4.1_[T8G]_[A9C]_T4.1 (ssRNA)
RNA: B6 RNA with C33U, A34C, A35G
B48: Ic_S2_P4E.1_K4.1_C4.1_H4.1_A4.1_[T5C]_[A6T]_[T7G]_F4.1_[T8C]_T4.1 (ssRNA)
RNA: B6 RNA with C33U, A34G, A35C, C36A
B49: Ic_S2_P4E.1_K4.1_C4.1_H4.1_A4.1_[T5C]_[A6T]_F4.1_[T8A]_T4.1 (ssRNA)
RNA: B6 RNA with C33U, A34U, C36A
B50: Ic_S2_P4E.1_K4.1_C4.1_H4.1_A4.1_[T5C]_[A6C]_[T7A]_F4.1_[A9C]_T4.1 (ssRNA)
RNA: B6 RNA with A35U
B51: Ic_S2_P4E.1_K4.1_C4.1_H4.1_A4.1_[T5C]_[A6T]_[T7C]_F4.1_[T8C]_[A9T]_T4.1 (ssRNA)
RNA: B6 RNA with C33U, A34C, A35C, C36U
B52: Ic_S2_P4E.1_K4.1_C4.1_H4.1_A4.1_[T5C]_[A6C]_F4.1_[T8C]_[A9G]_T4.1 (ssRNA)
RNA: B6 RNA with A34U, A35C, C36G
B53: Ib_S1_P3E.1_K3.1_C3.1_H3.1_A3.1_[T5G]_[A6T]_F3.1_T3.1 (ssRNA)
RNA: UCUCUUUGUAGUUAUCUCUU

target: T1, PUF4 RNA-binding domain; assay: Mg; RNA-MaP; 20 mM Na-HEPES pH 7.4, 30 mM KOAc, 0.75 mM MgCl2, 0.1% Tween-20, 5% glycerol, 0.1 mg/mL BSA, 2 mM DTT; 25 C; 0.0125-409.6 nM protein; conditions: tags: N-His6-TEV cleaved; C-SNAP kept, Cy3B-labelled; label: tethered on chip by stalled RNA polymerase

Binder | Kd
B1 | > 2300 nM
B2 | 819 nM
B3 | 4.51 nM
B4 | 1670 nM
B5 | 133 nM
B6 | 712 nM
B7 | 14 nM
B8 | 21.5 nM
B9 | 9.39 nM
B10 | 44.1 nM
B11 | 29.7 nM
B12 | 3.21 nM
B13 | 79.4 nM
B14 | 467 nM
B15 | 28.6 nM
B16 | 365 nM
B17 | 9.16 nM
B18 | 13.3 nM
B19 | 77.3 nM
B20 | 141 nM
B21 | 353 nM
B22 | 9.29 nM
B23 | 102 nM
B24 | 242 nM
B25 | 13.6 nM
B26 | 0.967 nM
B27 | 85.2 nM

Binder | Kd
B28 | 53.5 nM
B29 | 966 nM
B30 | 28.4 nM
B31 | 157 nM
B32 | 20.6 nM
B33 | 14 nM
B34 | 110 nM
B35 | 72.9 nM
B36 | 213 nM
B37 | 538 nM
B38 | 68.6 nM
B39 | 24.4 nM
B40 | 206 nM
B41 | 13.1 nM
B42 | 519 nM
B43 | 2.61 nM
B44 | 9.78 nM
B45 | 430 nM
B46 | 6.99 nM
B47 | 879 nM
B48 | 753 nM
B49 | 22.9 nM
B50 | 9.15 nM
B51 | 103 nM
B52 | 54.9 nM
B53 | 1020 nM
